Reference: patent US20170368168A1 (AGENUS, published 2017)

Key:
[1] = molecular target: T1, recombinant human TIM-3 Fc (R&D Systems, Cat#2365-TM) (human, UniProt P01857-1 100-330 = IgG part); assay: Luminex suspension array, antigen coupled to beads
T1 construct: also called rhTIM-3 Fc; human TIM-3/Fc chimera

[2] = molecular target: T2, recombinant human TIM-4 His (R&D, Cat#2929-TM) (human, UniProt Q96H15 25-315); assay: Luminex suspension array, antigen coupled to beads
T2 construct: also called rhTIM-4 His
T2 sequence (looked up): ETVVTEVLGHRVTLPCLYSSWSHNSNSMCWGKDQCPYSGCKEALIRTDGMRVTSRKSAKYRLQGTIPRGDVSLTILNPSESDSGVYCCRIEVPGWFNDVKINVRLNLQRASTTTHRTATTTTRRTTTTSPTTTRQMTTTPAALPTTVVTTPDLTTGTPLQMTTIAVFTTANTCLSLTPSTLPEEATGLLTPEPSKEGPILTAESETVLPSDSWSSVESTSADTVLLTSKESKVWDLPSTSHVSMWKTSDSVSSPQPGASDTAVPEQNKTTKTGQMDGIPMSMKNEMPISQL

[3] = molecular target: T3, recombinant human TIM-1 His (R&D Systems, Cat#1750-TM) (human, UniProt Q96D42 21-295); assay: Luminex suspension array, antigen coupled to beads
T3 construct: also called rhTIM-1 His
T3 sequence (looked up): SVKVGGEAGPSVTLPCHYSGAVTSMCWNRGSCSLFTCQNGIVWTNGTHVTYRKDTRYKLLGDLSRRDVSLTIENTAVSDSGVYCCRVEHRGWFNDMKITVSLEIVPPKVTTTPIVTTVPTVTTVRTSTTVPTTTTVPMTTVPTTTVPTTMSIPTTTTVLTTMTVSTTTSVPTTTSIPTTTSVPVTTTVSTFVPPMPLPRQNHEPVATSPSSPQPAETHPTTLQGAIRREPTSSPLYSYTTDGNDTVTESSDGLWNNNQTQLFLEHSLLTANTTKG

[4] = molecular target: T4, human TIM-3 expressed on cells (human, UniProt Q8TDQ0 22-301); assay: flow cytometry, 1624-5 cells expressing human TIM-3
T4 construct: also called T cell immunoglobulin and mucin domain-3; HAVCR2
T4 sequence: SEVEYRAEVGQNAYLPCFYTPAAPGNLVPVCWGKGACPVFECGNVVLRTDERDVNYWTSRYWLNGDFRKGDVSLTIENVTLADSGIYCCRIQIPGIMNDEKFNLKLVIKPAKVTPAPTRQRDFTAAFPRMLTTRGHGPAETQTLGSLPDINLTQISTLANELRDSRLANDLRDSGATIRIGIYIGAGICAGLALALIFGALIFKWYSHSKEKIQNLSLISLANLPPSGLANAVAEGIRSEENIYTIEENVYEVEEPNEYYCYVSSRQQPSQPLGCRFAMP

B1: pab2088 (IgG1) (antibody, V domains shown)
VH: not shown
VL: DIQMTQSPSSLSASVGDRVTITCRASQGISNYLAWYQQKPGKVPKLLIYAASTLQSGVPSRFSGSGSGTDFTLTISRLEPEDFAVYYCQQYGSSPLTFGGGTKVEIK
[1]
  binding result: binds
[2]
  binding result: no binding (tested: 10 ng/ml, 100 ng/ml, and 1000 ng/ml)
[3]
  binding result: no binding (tested: 10 ng/ml, 100 ng/ml, and 1000 ng/ml)
[4]
  binding result: binds
